These results are taken from article PMC9215227 (Journal of Virology, 2022).

This experiment has as its target NP of SARS-CoV-2 (catalog no. 40588-V07E; Sino Biological) (SARS-CoV-2, UniProt P0DTC9 1-419). In words: SPR; […], Biacore T200; 0.01 M HEPES pH 7.4, 0.15 M NaCl, 3 mM EDTA, 0.05% Tween 20; […]; 1:1 binding model. To be noted: both partners purified.

By Kd is commonly meant the constant that tells how readily two partners part at equilibrium. A higher Kd goes with weaker binding.

B1: 6×His-Flag-G3BP2 (natural protein)
chain: MVMEKPSPLLVGREFVRQYYTLLNKAPEYLHRFYGRNSSYVHGGVDASGKPQEAVYGQNDIHHKVLSLNFSECHTKIRHVDAHATLSDGVVVQVMGLLSNSGQPERKFMQTFVLAPEGSVPNKFYVHNDMFRYEDEVFGDSEPELDEESEDEVEEEQEERQPSPEPVQENANSGYYEAHPVTNGIEEPLEESSHEPEPEPESETKTEELKPQVEEKNLEELEEKSTTPPPAEPVSLPQEPPKAFSWASVTSKNLPPSGTVSSSGIPPHVKAPVSQPRVEAKPEVQSQPPRVREQRPRERPGFPPRGPRPGRGDMEQNDSDNRRIIRYPDSHQLFVGNLPHDIDENELKEFFMSFGNVVELRINTKGVGGKLPNFGFVVFDDSEPVQRILIAKPIMFRGEVRLNVEEKKTRAARERETRGGGDDRRDIRRNDRGPGGPRGIVGGGMMRDRDGRGPPPRGGMAQKLGSGRGTGQMEGRFTGQRR
With B1, the Kd was determined as 103 nM.
